Results as given in paper PMC11743138, “Structural basis for the interaction between the Drosophila RTK Sevenless (dROS1) and the GPCR BOSS” (Nature Communications, 2025).

Key:
[1] = biological target: T1, dROS1 (Sevenless) full extracellular region, construct 1-9 (D. melanogaster, UniProt P13368 126-2113); test: SPR; BIAcore T200; dROS1 constructs covalently coupled (NHS/EDC) to a CM5 chip, BOSS ECR proteins flowed over at 10 µL/min for 180 s; 20 mM HEPES pH 7.5, 100 mM NaCl; plateau RU against BOSS concentration fitted to a single-site specific binding model; settings: both partners purified
T1 construct: Sevenless (dROS1), D. melanogaster, extracellular region with FNIII domains 1 to 9, residues 126-2113; A Factor Xa cut site stands between the N-terminal octa-histidine tag and the protein; Coupled covalently to a CM5 chip in SPR; also called dROS1 1-9; full ECR of dROS1; source: Trichoplusia ni (Hi5) cells, baculovirus, purified from the medium (Ni resin, SEC)

[2] = biological target: T2, dROS1 (Sevenless) extracellular region construct 1-4, his-tagged (D. melanogaster, UniProt P13368 126-1298); test: as above; settings: both partners purified
T2 construct: Sevenless (dROS1), D. melanogaster, N-terminus of the ECR to the fourth FNIII domain, residues 126-1298; His tag is said to be kept for the HDX-MS experiment (immobilised on Ni resin); Factor Xa cut site after the His tag; also called dROS1 (1-4); N-terminal region of dROS1; source: Trichoplusia ni (Hi5) cells, baculovirus, purified from the medium (Ni resin, SEC); not shown: His8, N-terminal, …
T2 sequence (looked up): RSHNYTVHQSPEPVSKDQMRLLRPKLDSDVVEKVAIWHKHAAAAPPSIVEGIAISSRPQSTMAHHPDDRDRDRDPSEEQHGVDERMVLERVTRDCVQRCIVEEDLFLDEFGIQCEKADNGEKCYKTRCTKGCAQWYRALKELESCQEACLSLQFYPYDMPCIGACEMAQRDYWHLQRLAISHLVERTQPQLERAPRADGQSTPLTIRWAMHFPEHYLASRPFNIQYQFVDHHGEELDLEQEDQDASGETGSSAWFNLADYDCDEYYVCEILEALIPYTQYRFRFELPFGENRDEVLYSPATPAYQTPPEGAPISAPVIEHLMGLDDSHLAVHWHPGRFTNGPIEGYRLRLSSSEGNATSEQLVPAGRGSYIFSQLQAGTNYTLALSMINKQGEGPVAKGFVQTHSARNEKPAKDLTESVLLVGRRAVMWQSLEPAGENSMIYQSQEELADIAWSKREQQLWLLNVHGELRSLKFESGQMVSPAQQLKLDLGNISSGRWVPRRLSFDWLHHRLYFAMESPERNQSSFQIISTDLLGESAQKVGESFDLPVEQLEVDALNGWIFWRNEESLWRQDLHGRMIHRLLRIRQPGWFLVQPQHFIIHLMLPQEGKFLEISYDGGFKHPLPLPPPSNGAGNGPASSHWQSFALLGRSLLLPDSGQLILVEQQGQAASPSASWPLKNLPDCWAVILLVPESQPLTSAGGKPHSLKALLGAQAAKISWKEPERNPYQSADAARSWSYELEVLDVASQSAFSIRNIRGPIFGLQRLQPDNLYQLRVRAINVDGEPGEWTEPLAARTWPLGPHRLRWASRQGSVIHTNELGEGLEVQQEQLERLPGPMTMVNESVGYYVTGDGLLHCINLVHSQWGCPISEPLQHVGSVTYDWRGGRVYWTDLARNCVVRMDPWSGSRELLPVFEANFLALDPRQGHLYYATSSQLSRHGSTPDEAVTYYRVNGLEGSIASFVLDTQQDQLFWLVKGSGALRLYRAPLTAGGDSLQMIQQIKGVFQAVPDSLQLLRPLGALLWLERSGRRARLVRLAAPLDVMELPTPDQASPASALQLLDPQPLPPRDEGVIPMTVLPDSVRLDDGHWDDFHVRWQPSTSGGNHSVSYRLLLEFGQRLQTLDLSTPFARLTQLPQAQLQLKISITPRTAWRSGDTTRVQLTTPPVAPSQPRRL

[3] = biological target: T3, dROS1 (Sevenless) extracellular region construct 2-3 (D. melanogaster, UniProt P13368 440-931); test: SPR
T3 chain: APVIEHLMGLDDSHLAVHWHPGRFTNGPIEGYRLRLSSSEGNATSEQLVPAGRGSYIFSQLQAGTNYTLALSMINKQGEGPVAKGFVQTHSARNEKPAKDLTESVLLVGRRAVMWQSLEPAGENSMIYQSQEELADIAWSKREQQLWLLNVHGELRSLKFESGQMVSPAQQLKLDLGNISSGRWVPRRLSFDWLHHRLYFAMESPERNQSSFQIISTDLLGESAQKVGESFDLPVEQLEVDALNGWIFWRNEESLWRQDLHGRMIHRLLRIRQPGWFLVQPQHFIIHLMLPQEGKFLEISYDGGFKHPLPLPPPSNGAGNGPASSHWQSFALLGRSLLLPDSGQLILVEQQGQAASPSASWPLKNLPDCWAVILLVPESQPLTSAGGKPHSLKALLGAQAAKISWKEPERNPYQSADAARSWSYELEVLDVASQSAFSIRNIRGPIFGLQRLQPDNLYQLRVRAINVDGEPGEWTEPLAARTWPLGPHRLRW

B1: BOSS (Bride Of Sevenless) extracellular region, His tag cleaved (domain or fragment, D. melanogaster, UniProt P22815 102-510, looked up)
chain: GTTASLVPEICLNGLQLTVNSADEGTVIRKQEEFVKILEGDVVLSVLTKDPDSALFVINRVNQANLIMADFEIGIRAISIDNASLAENLLIQEVQFLQQCTTYSMGIFVDWELYKQLESVIKDLEYNIWPIPGTRAHLFPKVAHLLHQMPWGEKIASVEIATETLEMYNEFMEAARQEHMCLMHFKSDDNVYIMFGNKLASHFKENGTLFSVPTDRTDDEFLADLPNRAFVLMENEIDLSTAVELDATPTALDEILIGKSVLPSRVLSFAGSIIDLMNWLRGSLSKHCKRGEEHDLYVLESCFNFLNFIEDWRTSEYRQAHDTAEILSLLLMRKLGTAMNFQMYQKKVLTLDKITGESRTELREIASQNFVTNVTTYYHYNRDNHTSLELKTKFGQVFNCQYSAGDNRR
notes: Bride of sevenless (BOSS), D. melanogaster, extracellular region, residues 102-510; also called BOSS ECR; BOSSWT; source: Trichoplusia ni (Hi5) cells, baculovirus, purified from the medium (Ni resin, SEC; Factor Xa cleavage, Ni flow-through, SEC); not shown: His8, N-terminal, cleaved
- Kd [1]: 4.4 µM
- Kd [2]: 3 to 5 µM
- Kd [3]: 5 µM
